Results from the DeepSol protein solubility set.

Test: soluble on expression in E. coli; label from the status in PepcDB or PDB records

Sequence	soluble on expression in E. coli
MGSDKIHHHHHHMDVLVVGATGTLGRQIARRALDEGHRVRCLVRSPKRGNFLREWGCDLVRGDLTQPESLTFALEGIEAVIDAATTRSTDSLSCYDVDWQGKVNLIKAATEAGVQRFVFCSIIDAEKHRDVPLMDIKYCTEEFLRQSGLNYTILRLAGFMQGLIAEFAIPVLEGRTAFITQDSDPIAYLSTLDIARFAVAALTTPATEKQTLPVVGPKAWSGLEIFRLCERLSGKETKIARLPLATVSAMKRFFRFFQWGWNIADRLAFSEVMACGRPFTADMAATYTAFGIDPAEITGLESYLNDYFSVMLRRLKELEFDQKKDKKKKVPF	not soluble
MGSDKIHHHHHHMDVQVYFSKVEDPRVVGRCKHKLSDILVIALASYLCGGEDYESMHELCLERGASLRPPVELPNGCPSVDTFERVLQRIEPQSLYACLQVYGKELISDLEGKHIAIDGKRLKGSKKKTGSTHILSAWVDEVSLSLAQETVAEKRNELQAIPEVLDSLDLSGAVISINAMGTQTNIAEQIIQSEADYILSLKSNQKHLYEDVQDYFTGQYRCHRYETLEKDHGRIEKRTYTTLLASEVFEEGEYSQWQGLRSLIQVEREISSLEGETRIDRQYYISSLPPEDCQLIGQYIRGHWGIENRLHWHLDVTFREDTCRARKDYSATNLNTLRKFALAIVSGHKDKLSLRKRLFKAALNIDYLKKLLKI	not soluble
MGSDKIHHHHHHMDVVDELIKLHEEHVSGLLRLCGQAGWPDYGEQELKLLVQQGRFFGYQNVSGDIISCIGLFLFGRLTSIGLVIVDKEYQRLGLGRRMVNACITQTDENTAIRLCATKEGLPLYEKAGFHTAGSVRKYSCHSFQPYTKKLDAELTSFREQDFHDLTAADLAAFGGDRSNLLQQLISASCECIIARNQDGQLIGYGLSVQTPANLKFGPIIAPSSDVAAQIITRLAAGKQGPMRIDIPSEHTSLHDSLIEMGFHKDDEPPILFYQKKAPIQNGHLYALISQALG	not soluble
MGSDKIHHHHHHMEANNGKMERIQEMLRMFGLSSYEAQGFAALVYHGVANADTIASTANIPRTSAYKVMESLVRKGLAKATEGRPRMFKPAKMEEIRDYYEEKLQQLFRDLKELEDNAPSRGEPQLIYTINGSQKVMEKIEEMINLTEHEIMISTPKIIEIRKQMKKPIENAIKRGVRVVFVIPPNKRVPANVIVYRRDGLIATDIVSDQIRALIAGPDLETCGYSDNPMLSMHVYQFINILINKPEIQG	not soluble
MGSDKIHHHHHHMEETNEMKDSKHLISNIQSQYTRLSKGQKLIAQYILNNYDKVAFMTACKLGETVGVSESTVVRFANALGYSGYPKLQAALQELIKNKLTTVQRVEMAHDYSDDFAILNKVLKSDIDNIRSTLEEIDERAFKEASNKLLRARKIYILGMRSSFVVAQYLGFYLDIILDNVHIIRMDMGDAFEQIVRINEEDVIVAISFPRYSKKSYQIVNYAKEKGAHVISLTDSLFAPVASLADNTLLVKSNMASFVDSLVPALSISNALAISVGMKEKEDIKQHFDDLEQIWKRYSVYE	not soluble
MGSDKIHHHHHHMEHPENNEEYKGLVVNKGIEQPSSVNPYLKRKPKKRQLSVAEFVEGIVKGDVTILSQAVTLVESVKPEHQAVAQEVIEKCLPYSGNSIRVGISGVPGAGKSTSIDVFGLHVLEKGGKLAVLAIDPSSERSKGSILGDKTRMEQLSVHPQSFIRPSPSAGSLGGVARKTRETIVLCEAAGFDKIFVETVGVGQSETAVHSMVDFFLLIQLAGTGDELQGIKRGIMEMADGIVINKADGDNLEPAKLAASQFRNALHLFPAPESGWIPKVLTYSGFYNIGVKEIWDMVYEYIDFVKKNGYFDYRRNEQSKYWMYETINEQLRDSFYHNPRIEAMLQEKEQQVLQGNLTSFIAAKSLLDTYFDELKR	not soluble
MGSDKIHHHHHHMEIKKFIENYREAFGEYAELPIVFWYSDILENETGKVNGCFFKSMSKVRGGNTISLNAETIGCGGGKFYTGFTDMPEHVPTFVSLKERYKQTPEMVKSFIEQLGVPRAEKEYLHFARIDKVETFDHLEGILFLANPDILSGLTTWAFFDNNKEDTVISTFGSGCSSVVTQTILENRKGGYRTFIGFFDPSVRPYFEADILSYTIPMSRFKVMYETMRSSCLFDTHAWGKIRERNHNSYKE	not soluble
MGSDKIHHHHHHMELRPDLLFLDVELPDVLGLNLLSEMRDEVLWDMKVVFYTSYDKYLLQALRESAFDFLLKPFETGDLRVVIERYRKAVASIPATPSSSFSSSVSALMPQQGMFMISTVTGFKLLRLEEIGYFEYLKDKRQWQVVLFNQTRLNLKRNTKAEDIIGYSQAFIQISQSAIVNVNYLAMIDGKCCQLYPPFHDKSDLVISRSFLKGLQDRFFVL	not soluble
MGSDKIHHHHHHMEMESPVRILFVIDQFSSPYAGTEGQLLQLISNLPADRFDPELLVLRSSDYVNEGNIPCKVHVLGSSKLFSMKTWLALFQFARRQKQAGTALCHVFFNDSSVLCPPVFGLVGIPTLISRRDMGYWYTRKYLWVLRRTAGFVRGVVANSEAVKRITVQKEGFSDADVSVIYNGYPEGDEELHPLIGEERQRYVETLGLPKSGRFVVLVANLRDIKRIGDAISAMARLTQTLPDTHLVLIGAGDQKPYRMLAEAVGNAGQVHFLGARSDVNNILRVMDVGLLCSESEGYSNAIVEYMQAKLPVVASDVGGNSEAVEHGVTGFLFPMGDVDQMAEQLATVLKGESRAVASMGEAGYKRAGHRHALHTMIEAHCGLYDRLLSGSDYSRSGLGVR	not soluble
MGSDKIHHHHHHMENVREILQELMSKRKLDQRFNNVMKSVYSDPEVISFCEEHQDELSKEAIERGAAKLYEFVSERNKIKNNQATFLPGYQPELVLSNHLIDIEYVPTKQTHLLEQERHRKALVKSISMPKLIRHASLEGYYQEPERTDALAKTLAFVNEYLERPQDWHKGLYLTGSFGVGKTYLMGAMGNALADEGYSTTIVHFPSLAVELKNAIGSSNTIQTKIDAIKKAPILVIDDIGADSISSWIRDDVLGVILEYRMQEELPTFFTSNFSMDQLEREHLTVNQRGEAEPLKAKRLMERIKFLSEEVSMTGKNHRQD	not soluble
MGSDKIHHHHHHMENYLGRLWTKAQLSEQLRKIAISLPSFIKKGSDYICTRCSSSVAKNCQLPTGNYYCRECIVFGRVTSNENLYYFPQKTFSKTNSLKWKGELTPYQNEVSEELLKGISSKENLLVHAVTGAGKTEMIYHSVAKVIDTGGSVCIASPRIDVCLELYKRLSNDFRCAITLMHGESPSYQRSPLTIATTHQLLKFYHAFDLLIVDEVDAFPYVDNPILYQGVKQALKENGTSIFLTATSTTELERKVARKELKKLHLARRFHANPLVIPEMVWVSGIQKSLQTQKLPPKLYQLINKQRQTRYPLLLFFPHISEGQVFTEILRQAFPMEKIGFVSSKSTSRLKLVQDFRDNKLSILVSTTILERGVTFPSVDVFVIQANHHLFTKSSLVQISGRVGRALERPEGLLYFLHDGKSKSMHQAIKEIKNMNHIGGF	not soluble
MGSDKIHHHHHHMEPDFYHGFYPPTPLKTYPEEIFYIGKCTENMQPVGLDIGTNYTKITADGKNVLLYPSIVAYGEEKDWSLKGETKSVYIGDEALSIVQSMENVEVLRPLHEGRVLHTSYLELAKYGLNKLKVKDGLIATGLPVKSSKKEREELKRELESELNSKVLIFPEPVGTMAYMGMETGVCVDIGFGTTDVLVIADMEYLKGDTMLMGVDKLYENLEVAVRNRIGISITPEEMTKLLTTEGYEIGRIRGGKKVSVSREEIMPEYEGYVKTWVERIASRVKLVLEGLSTTLVENFAITGGGSMLPGVYEMFKESFSDIGDVKRPDEPIKANSIGYYILAKSLVVEAETEQSGDAEILDADDKKKGRKGKK	not soluble
MGSDKIHHHHHHMEPHWDDMKVFLAVAREESLSGAGRQLKLDPATVGRRIARLESAYDTPLFAKSPQGYTLTAAGERLLSHGEQAEAAMRSASEALAGTTEGLTGQIRIGAPDGSANYLLPQVCAQISDENPELDIQILALPRIINLSRREADMAVTVSAPTAGHLLVQKITDYKLHMVASRRYLRGHPPIETLADLRGHRMIGYIPDMIFDRELDYLNDIGIERVALASNSVSVQLRQAGHGSGICVAHDFTLPFHGNLRRILTDQVSLTRSFYLVRHQGDQRSERLNRFAEALTRGIRDEVARLEADAMS	not soluble
MGSDKIHHHHHHMEQNAEKRSIVGDDNSTVKRQDTSPSKGIAHIKPEYIVPLKQNENQKVAIYDEEMSSDRMTNEFAGGTNKKNKNGRGKKRGQNKNRDNRQVKEQNVLCPRLIHGDISKCSFGDNCRFVHDINLYLSTKKPEVESNIFPSCPVFNSLGFCPMGFKCRFLSSHLNKEDNILISKKEIDPDAQTIWSVKGEVNHISPERKLDLIKRRFPFTKSNEILEIIDSFQQECRDSMKPEEEVESTPQLKKQDPDVEQPVAPQVEQRNKELSEHRMKQREVYLKYKDTRYFAQEKKPLDLYHKKIVSPLTTVGNLPYRRLMRKLGADVTYSEMALAVPLIQGTNSEWALPKAHTSEFPGFGVQVACSKAWQAAKAAEALANSVSEISEINLNSGCPIDLLYRQGSGSALLDNPARMIRCLNAMNYVSKDIPITVKIRTGTKEGHPIAEGLVKRLVNETDVAAITLHGRSRQQRYTKSADWDYVSQVADTLRSAEADFIETEQGKEGRDSKNRIQFVGNGDVNNFEDWYRYLNGNENIDSVMVARGALIKPWIFEEVESQQYLDKTSTERLDILRDYAQFSMEHWGTDEYGISQCRRFFCEFMSFFHRYVPWVFVKDTL	not soluble
MGSDKIHHHHHHMERAGLAALEDALRNGLSEPFCKAIETIGQSNGRLIITGVGKSGHIGAKLAATFASTGTPAFFVHAAEANHGDLGMIGGDDVVLAISKGGESAELRSIINYSRRFSIPLIALTCSENSSLARASDIVLLVPNEQEACPLGLAPTTSTLMQLALGDALAVALLEARNFTAGDFKVFHPGGKLGASLTLVSDIMHTGDRVPLVNKGTAMPEAVGVLSRKHFGCVGILDEDGRLCGIVTEGDMARNLSRNLAELVVDDIMTRSPKTVKKSVLATSALATLEKFHIGALIVVDDDNRPIGLVHFHDLLRIGVA	not soluble
MGSDKIHHHHHHMERFCCVNQINYIQMNPLEAKFKTSALRSWKTDQADAHKLACLGPTLKQTDNLPIHELIFFELRERVRFHLEIENEQNRLKFQILELLHQTFPGLERLFSSRYSIIALNIAEIFTHPDMVLDIDKEVLITHIFNSTDKGMSMDKATKYALQLRVIAQESYPNVDRHSFLVEKLRLLIQQLKQSIHHPKQLDDAMIQLAQQLDYFENIHSIPGIGKLSTAMIIGEIGDIKRFKSNKQLNAFVGIDIKRYQSGHTHCRDTINKRGNKKARKLLFWVIMNIIRGQHHYDNHVVDYYYKLRKQPNEKPHKTAIIACINRLLKTIHYLVMNHKLYDYQMSPH	not soluble
MGSDKIHHHHHHMERRTILVTGASGFVGGALCRQLATLGSFAIRAASRDLGGASVAGIQAVTVADLSATTDWARALSGVDLVVHAAARVHVMKETASDSLAEFRRVNVDGTLNLARQAAAAGVRRFIFISSIKVNGESSQPGQPLRADDSPAPQDAYGVSKHEAEQGLRQLAAATGMEVVVIRPVLVYGPGVKANFHSMMRWLQRGVPLPFGAVCNRRSLVSLANLVDLVVTCIDHPRAANQTFLASDGDDVSLTQLLRALGLALGRPARLLPVPAGLLRGAVLLIGRRDLAQRLFGTLQVDIEKNRQLLGWYPPCTLEQGLNMTARSFLGARRP	not soluble
MGSDKIHHHHHHMETLQLRDISETALLPLWARAMETLRPDAIIHDDKALEMYQRLNYDFKRFSNAWLSQLAIAIRTDLIDKLVMDFINAHPQAVIINLGAGFDSRYLRVDNGQIHWFDLDLPNVIAARRLFFSDSDRYRMLEQSLFDVSWLEHAAGESDNCLILAEGVLMYFTEQRIKQFFNDLAERIPHARMLLEMLPHGALGQAHLHEAIGWMNAAFQWTLHNIRRLESWNSHIKVRQEWCILDYHWERWGALSLLAWSPWHRYLFGEKLALLEFD	not soluble
